Common to all, as to assay: cell_activity
Details in all cases: HEK293T luciferase reporter, single TALE-TF

In series [1] the test system is CEACAM5 TALE F TALE-TF (VP64) (synthetic (Xanthomonas TALE)?).
The target of series [2] is CEACAM5 TALE E TALE-TF (VP64) (synthetic (Xanthomonas TALE)?) (UniProt Q56830).
The target in series [3] is CEACAM5 TALE D TALE-TF (VP64) (synthetic (Xanthomonas TALE)?) (UniProt Q56830).
The test system of series [4] is CEACAM5 TALE C TALE-TF (VP64) (synthetic (Xanthomonas TALE)?).
The target in series [5] is CEACAM5 TALE B TALE-TF (VP64) (synthetic (Xanthomonas TALE)?) (UniProt Q56830).
Series [6] concerns the target IL1RN TALE-D TALE-TF (VP64) (synthetic (Xanthomonas TALE)?) (UniProt P14727).
Series [7] has as its system IL1RN TALE-C TALE-TF (VP64) (synthetic (Xanthomonas TALE)?).
For series [8], the system named is IL1RN TALE-B TALE-TF (VP64) (synthetic (Xanthomonas TALE)?).
Series [9] addresses IL1RN TALE-A TALE-TF (VP64) (synthetic (Xanthomonas TALE)?) (UniProt Q56830).
The target in series [10] is KLK3 TALE-A TALE-TF (VP64) (synthetic (Xanthomonas TALE)?) (UniProt Q56830).
Series [11] has as its target KLK3 TALE F TALE-TF (VP64) (synthetic (Xanthomonas TALE)?) (UniProt Q56830).
Series [12] deals with KLK3 TALE D TALE-TF (VP64) (synthetic (Xanthomonas TALE)?).
Series [13] deals with KLK3 TALE E TALE-TF (VP64) (synthetic (Xanthomonas TALE)?) (UniProt Q56830).

On to “CEACAM5 promoter reporter (hg19 chr19:42211804-42212651)”, for which the activity turned out to be 4.7 fold RLA in series [1]; 2.41 fold RLA in series [2]; 4.59 fold RLA in series [3]; 3.74 fold RLA in series [4]; 11.6 fold RLA in series [5].
For the substance “IL1RN promoter reporter (hg19 chr2:113874366-113875462)”, the activity turned out to be 5.76 fold RLA in series [6], 6.75 fold RLA in series [7], 12 fold RLA in series [8] and 14.4 fold RLA in series [9].
As to “KLK3 promoter reporter (hg19 chr19:51357466-51358177)”, the activity stood at 25.1 fold RLA in [10], 4.57 fold RLA in [11], 45.8 fold RLA in [12] and 2.17 fold RLA in series [13].
